Data taken from patent publication US8703503B2, “Methods and compositions for inhibition of BCL6 repression” (Albert Einstein School of Medicine of Yeshiva University, priority 2003, dated 2014).
Entries after “also recorded” stand apart in the source; their conditions may differ. Blank lines part the entries; values can stand above or below the molecule they belong to. Residues, ends and D or L forms follow the SMILES beside them. No end group written: not given here.

Experiments:
BCL6 BTB domain [1] = target: T1, BCL6 BTB domain (Homo sapiens, UniProt P41182, C67R/C84N/C8Q); experiment: biochemical
Description: Protein Expression and Purification. […] BCL6 BTB domain protein was produced by thrombin digestion of the thioredoxin fusion proteins, and repurified by size-exclusion chromatography in 500 mM NaC1, 20 mM Tris-HCl, 10% glycerol, 1.0 mM TCEP, pH 8.5. Corepressor fusion proteins were biotinylated with BirA and digested with TEV protease to yield peptides for SPR analysis with a biotinylated lysine eight amino acids N-terminal to the first corepressor residue, or digested with thrombin to produce peptides with no additional N-terminal residues for co-crystallization or ITC.
ITC: The binding of SMRT^1414-1430 to BTB domain protein was analyzed on a Microcal VP-ITC instrument at 25° C. All components were in 150 mM NaCl, 20 mM Hepes pH 7.7, 1 mM TCEP. The experiment consisted of thirty 6.93 μL injections of a solution containing 480 μM SMRT^1414-1430 into a sample cell containing 1.8 mL of either BCL6 BTB (23.0 μM) or PLZF BTB (38.5 μM). To correct for dilution and mixing effects, a series of control injections was carried out, in which the heat of dilution was measured in blank titrations by injecting the peptide into the buffer.

[2] = target: T2, BCL6 BTB domain H116A mutant (Homo sapiens, UniProt P41182, C67R/C84N/C8Q/H116A); experiment: Co-purification assay with mutant BCL6 BTB domain H116A; type: binding
T2 construct: which is BCL6 residues 5-129, with the point mutations C8Q, C67R and C84N; thioredoxin-6His-TEV site-BirA motif-thrombin site fusion (N, cleaved yes); made in house; host or cells: E. coli
Description: (§1) In vitro binding assays. Co-purification: Equimolar amounts of His-tagged thioredoxin-corepressor fusion protein and BCL6 BTB or PLZF BTB domain were combined, incubated for at least two hours, and loaded onto a Ni-NTA spin column (Qiagen). The column was washed three times with 600 μl of wash buffer (200 mM NaCl, 20 mM Tris-HCl pH 8.0, 10 mM imidazole), and bound protein was released with 400 μl of elution buffer (200 mM NaCl, 20 mM Tris-HCl pH 8.0, 300 mM imidazole). Samples were analyzed on 10-20% SDS-PAGE gels and stained with Coomassie blue.

[3] = target: T3, BCL6 BTB domain N21K mutant (Homo sapiens, UniProt P41182, C67R/C84N/C8Q/N21K); experiment: Co-purification assay with mutant BCL6 BTB domain N21K; type: binding
T3 construct: which is BCL6 residues 5-129, with the point mutations C8Q, C67R and C84N; thioredoxin-6His-TEV site-BirA motif-thrombin site fusion (N, cleaved yes); made in house; host or cells: E. coli
Description: as §1

BCL6 BTB domain [4] = target: T1, BCL6 BTB domain; experiment: Surface plasmon resonance (SPR) binding of BCL6 BTB domain to immobilized corepressor peptides; design: which is BCL6 residues 5-129, with the point mutations C8Q, C67R and C84N; made in house; conditions: for relative binding affinity by SPR: relative to the longer SMRT peptide(s)
Description: Protein Expression and Purification. […] BCL6 BTB domain protein was produced by thrombin digestion of the thioredoxin fusion proteins, and repurified by size-exclusion chromatography in 500 mM NaC1, 20 mM Tris-HCl, 10% glycerol, 1.0 mM TCEP, pH 8.5.
SPR: Biotinylated corepressor peptides were coupled to streptavidin-coated sensor chips to a density of 800 response units (Biacore 2000). BCL6 or PLZF BTB protein was serially diluted in running buffer (10 mM Hepes, pH 7.4, 150 mM NaCl, 3 mM EDTA, 0.005% v/v surfactant P20) and injected at a flow rate of 5 μL/min.

BCL6 BTB domain [5] = target: T1, BCL6 BTB domain; experiment: Electrophoretic mobility shift assay (EMSA) for complex formation of BCoR fragments with BCL6 BTB domain; type: binding; design: which is BCL6 residues 5-129, with the point mutations C8Q, C67R and C84N; made in house; conditions: non-denaturing PAGE
Description: Further mapping of the minimal BCoR fragment was done with a version of an electrophoretic mobility shift assay (EMSA). Purified BCL6 BTB domain was mixed with a BCoR fragment (either as a fusion protein or as a purified peptide) and incubated at room temperature in a non-denaturing buffer. The mixture was analyzed by non-denaturing polyacrylamide gel electrophoresis (PAGE) and protein bands were visualized with either Coomassie blue staining or silver staining. A change in the position of the BCL6 BTB domain band was indicative of complex formation. […] These two sequences correspond to a S507A / W509A / V511A BCoR triple mutation, and to a S507W / W509S BCoR double mutation, respectively.

BCL6 BTB domain [6] = target: T1, BCL6 BTB domain; experiment: Co-purification assay (Ni-NTA) of His-tagged corepressor fusion proteins with BTB domain; type: binding; design: which is BCL6 residues 5-129, with the point mutations C8Q, C67R and C84N; made in house
Description: as §1
The initial BCL6 interacting fragment identified in the yeast two-hybrid screen consisted of residues 112-753 of BCoR (Huynh et al., 2000).

Molecule: CC[C@H](C)[C@H](NC(=O)[C@H](CO)NC(=O)[C@H](CCCNC(=N)N)NC(=O)CNC(=O)[C@H](C)NC(=O)[C@H](CCC(=O)O)NC(=O)[C@H](CCCCN)NC(=O)[C@@H](NC(=O)[C@@H](NC(=O)[C@H](C)NC(=O)[C@@H](NC(=O)[C@@H](N)CC(C)C)C(C)C)[C@@H](C)O)C(C)C)C(=O)N[C@@H](Cc1c[nH]cn1)C(=O)N[C@@H](CCC(=O)O)C(=O)N[C@H](C(=O)N1CCC[C@H]1C(=O)N[C@@H](CCCNC(=N)N)C(=O)O)[C@@H](C)CC [SMRT^1414-1430, lvatvkeagrsiheipr] (H-LVATVKEAGRSIHEIPR-OH)
stoicheometry of the interaction by ITC (BCL6 BTB domain [1]): 1.11 ±0.06 SMRT peptides per BCL6 chain
enthalpic contribution ΔH (BCL6 BTB domain [1]; ITC): -23.2 ± 1.6 kcal/mol
entropic contribution −TΔS (BCL6 BTB domain [1]; ITC): 16.4±2.3
binding to H116A mutant BCL6 BTB domain [2]: does not bind
binding to N21K mutant BCL6 BTB domain [3]: does not bind
relative binding affinity by SPR (BCL6 BTB domain [4]): stronger binding

Molecule: CAIYRSEIISTAPSSWVVPGPSPNE (not fully specified) [BCoR 494-518, thioredoxin-6his fusion protein with BCoR residues 494-518]
complex formation with the BCL6 BTB domain (EMSA band shift) (BCL6 BTB domain [5]): forms a complex; also recorded: complexes were present

Molecule: RSEIISTAPASAVAPGP [BCoR peptide with S507A / W509A / V511A triple mutation]
complex formation with the BCL6 BTB domain (EMSA band shift) (BCL6 BTB domain [5]): did not result in a shift

Molecule: BCoR 494-514: thioredoxin-6his fusion protein with BCoR residues 494-514 (CAIYRSEIISTAPSSWVVPGP; also: thioredoxin-6His fusion protein)
complex formation with the BCL6 BTB domain (EMSA band shift) (BCL6 BTB domain [5]): complexes were present

Molecule: RSEIISTAPSSWVVPGP [BCoR 498-514]
complex formation with the BCL6 BTB domain (EMSA band shift) (BCL6 BTB domain [5]): complexes were present

Molecule: CC[C@H](C)[C@H](NC(=O)[C@H](CO)NC(=O)[C@H](CCCNC(=N)N)NC(=O)CNC(=O)[C@H](C)NC(=O)[C@H](CCC(=O)O)NC(=O)[C@H](CCCCN)NC(=O)[C@@H](NC(=O)[C@@H](NC(=O)[C@H](C)NC(=O)[C@@H](NC(=O)[C@@H](N)CC(C)C)C(C)C)[C@@H](C)O)C(C)C)C(=O)N[C@@H](Cc1cnc[nH]1)C(=O)N[C@@H](CCC(=O)O)C(=O)N[C@H](C(=O)N1CCC[C@H]1C(=O)N[C@@H](CCCNC(=N)N)C(=O)O)[C@@H](C)CC [SMRT^1414-1430, lvatvkeagrsiheipr] (H-LVATVKEAGRSIHEIPR-OH)
Kd (BCL6 BTB domain [1]): 11.4 ± 1 µM

Molecule: SMRT^1417-1441: N-terminally truncated SMRT corepressor peptide, residues 1417-1441 (TVKEAGRSIHEIPREELRHTPELPL; not fully specified)
relative binding affinity by SPR (BCL6 BTB domain [4]): slightly weaker binding

Molecule: BCoR 502-522: thioredoxin-6his fusion protein with BCoR residues 502-522 (ISTAPSSWVVPGPSPNEENNG; also: thioredoxin-6His fusion protein)
complex formation with the BCL6 BTB domain (EMSA band shift) (BCL6 BTB domain [5]): complexes were present

B1: BCoR fragment 317-547: hexahistidine tagged fusion protein containing residues 317 to 547 of BCoR (protein)
chain: SAKAVTSGLPGDTALLLPPSPRPSPRVHLPTQPAADTYSEFHKHYARISTSPSVALSKPYMTVSSEFPAARLSNGKYPKAPEGGEGAQPVPGHARKTAVQDRKDGSSPPLLEKQTVTKDVTDKPLDLSSKVVDVDASKADHMKKMAPTVLVHSRAGSGLVLSGSEIPKETLSPPGNGCAIYRSEIISTAPSSWVVPGPSPNEENNGKSMSLKNKALDWAIPQQRSSSCPRM
modifications: left off: large carriers
notes: hexahistidine tagged fusion protein containing residues 317 to 547 of BCoR
binding to H116A mutant BCL6 BTB domain [2]: did not bind
binding to N21K mutant BCL6 BTB domain [3]: did not bind
binding to BCL6 BTB domain in co-purification assay (BCL6 BTB domain [6]): bound directly

B2: BCoR 542 to 753: hexahistidine tagged fusion protein containing residues 542 to 753 of BCoR (protein, UniProt Q6W2J9 542-753, looked up, fragment)
chain: SSCPRMGGTDAVITNVSGSVSSAGRPASASPAPNANADGTKTSRSSVETTPSVIQHVGQPPATPAKHSSSTSSKGAKASNPEPSFKANENGLPPSSIFLSPNEAFRSPPIPYPRSYLPYPAPEGIAVSPLSLHGKGPVYPHPVLLPNGSLFPGHLAPKPGLPYGLPTGRPEFVTYQDALGLGMVHPMLIPHTPIEITKEEKPERRSRSHERA
modifications: hexahistidine tag
notes: hexahistidine tagged fusion protein containing residues 542 to 753 of BCoR
binding to BCL6 BTB domain in co-purification assay (BCL6 BTB domain [6]): did not

B3: BCoR 112 to 342: hexahistidine tagged fusion protein containing residues 112 to 342 of BCoR (protein, UniProt Q6W2J9 112-342, looked up, fragment)
chain: LGFSSERNPEMQFKPNTPETVEASAVSGKPPNGFSAIYKTPPGIQKSAVATAEALGLDRPASDKQSPLNINGASYLRLPWVNPYMEGATPAIYPFLDSPNKYSLNMYKALLPQQSYSLAQPLYSPVCTNGERFLYLPPPHYVGPHIPSSLASPMRLSTPSASPAIPPLVHCADKSLPWKMGVSPGNPVDSHAYPHIQNSKQPRVPSAKAVTSGLPGDTALLLPPSPRPSPR
modifications: hexahistidine tag
notes: hexahistidine tagged fusion protein containing residues 112 to 342 of BCoR
binding to BCL6 BTB domain in co-purification assay (BCL6 BTB domain [6]): did not

Further lines, results first:

fold stronger affinity of the BTB domain relative to the longer SMRT peptide (BCL6 BTB domain [4]; SPR, ratio of dissociation constants): 2.5 fold
Molecule: N-CoR^1351-1383: N-CoR corepressor peptide, residues 1351-1383, equivalent to the SMRT fragment (IHEIPRQDILTQESRKTPEVVQSTRPIIEGSIS; UniProt O75376 1351-1383, looked up, fragment)

complex formation with the BCL6 BTB domain (EMSA band shift) (BCL6 BTB domain [5]): do not interact
Molecule: BCoR 506-522: thioredoxin-6his fusion protein with BCoR residues 506-522 (PSSWVVPGPSPNEENNG; also: thioredoxin-6His fusion protein)

complex formation with the BCL6 BTB domain (EMSA band shift) (BCL6 BTB domain [5]): do not interact
Molecule: BCoR 494-510: thioredoxin-6his fusion protein with BCoR residues 494-510 (CAIYRSEIISTAPSSWV; also: thioredoxin-6His fusion protein)

complex formation with the BCL6 BTB domain (EMSA band shift) (BCL6 BTB domain [5]): did not result in a shift
Molecule: RSEIISTAPWSSVVPGP [BCoR peptide with S507W / W509S double mutation]

binding to H116A mutant BCL6 BTB domain [2]: significantly reduced affinity
binding to N21K mutant BCL6 BTB domain [3]: no binding at all
Molecule: Trx-(SMRT-BBD): His-tagged thioredoxin fusion protein of the SMRT-BBD (LVATVKEAGRSIHEIPR; also: His-tagged thioredoxin fusion protein)
